In publication PMC3248895:

Molecular target: polymerized nonmuscle actin (F-actin) (UniProt P60709)
Assay: co-sedimentation

“GST-connecdenn 3 789–801 wild type (from UniProt Q8IV53 789-801) (peptide)” showed a Kd of 10.7 µM.
